T1: PEX5-CAT2 complex (Atto-488-labelled CAT2 saturated with PEX5) (Arabidopsis thaliana, UniProt P25819 1-492; Q9FMA3 1-728, labelled with Atto-488 (protein to dye 1:1))
T1 construct: catalase 2 (CAT2), Arabidopsis thaliana, full-length recombinant protein; as the chain of m2; PEX5, peroxisomal PTS1 import receptor, Arabidopsis thaliana, full-length recombinant protein; as the chain of m3
T1 sequence (looked up) 1: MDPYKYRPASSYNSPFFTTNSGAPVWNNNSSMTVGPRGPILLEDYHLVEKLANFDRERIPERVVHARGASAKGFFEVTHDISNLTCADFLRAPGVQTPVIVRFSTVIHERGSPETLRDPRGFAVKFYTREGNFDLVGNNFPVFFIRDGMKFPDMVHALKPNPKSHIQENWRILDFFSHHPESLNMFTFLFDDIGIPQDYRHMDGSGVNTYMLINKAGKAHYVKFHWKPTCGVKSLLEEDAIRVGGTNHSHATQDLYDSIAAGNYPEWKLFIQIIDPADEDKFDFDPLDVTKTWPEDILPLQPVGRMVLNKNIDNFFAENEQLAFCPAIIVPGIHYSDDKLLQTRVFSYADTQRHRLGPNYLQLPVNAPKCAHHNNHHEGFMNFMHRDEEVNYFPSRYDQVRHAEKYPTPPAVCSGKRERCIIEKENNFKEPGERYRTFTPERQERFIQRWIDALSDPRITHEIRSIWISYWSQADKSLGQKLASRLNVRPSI
T1 sequence (looked up) 2: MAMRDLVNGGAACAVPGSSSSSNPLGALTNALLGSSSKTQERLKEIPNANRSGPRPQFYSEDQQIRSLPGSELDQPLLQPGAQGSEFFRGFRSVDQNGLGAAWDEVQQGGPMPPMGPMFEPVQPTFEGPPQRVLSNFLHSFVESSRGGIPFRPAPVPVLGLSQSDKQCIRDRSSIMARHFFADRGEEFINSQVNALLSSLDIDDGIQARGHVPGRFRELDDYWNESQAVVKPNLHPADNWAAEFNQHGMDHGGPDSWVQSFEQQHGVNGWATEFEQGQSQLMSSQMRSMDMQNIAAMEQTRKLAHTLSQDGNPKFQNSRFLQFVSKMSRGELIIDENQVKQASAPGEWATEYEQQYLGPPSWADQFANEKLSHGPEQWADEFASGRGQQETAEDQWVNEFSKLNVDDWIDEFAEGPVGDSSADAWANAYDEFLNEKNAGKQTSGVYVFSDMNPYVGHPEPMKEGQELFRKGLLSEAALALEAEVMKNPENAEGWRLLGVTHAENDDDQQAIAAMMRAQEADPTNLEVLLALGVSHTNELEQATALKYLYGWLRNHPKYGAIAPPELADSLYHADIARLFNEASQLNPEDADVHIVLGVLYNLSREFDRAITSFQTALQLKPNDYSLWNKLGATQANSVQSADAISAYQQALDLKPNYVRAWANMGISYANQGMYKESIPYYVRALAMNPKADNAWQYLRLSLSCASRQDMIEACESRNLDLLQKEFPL

T2: peroxisome import receptor PEX5, recombinant Arabidopsis thaliana, full-length (Arabidopsis thaliana, UniProt Q9FMA3 1-728, unlabelled in MST; labelled with Atto-647 in the condensate imaging)
T2 construct: PEX5, peroxisomal PTS1 import receptor, Arabidopsis thaliana, full-length recombinant protein; cloning not described; The cloning of the PEX5 construct is not described in the methods
T2 sequence (looked up): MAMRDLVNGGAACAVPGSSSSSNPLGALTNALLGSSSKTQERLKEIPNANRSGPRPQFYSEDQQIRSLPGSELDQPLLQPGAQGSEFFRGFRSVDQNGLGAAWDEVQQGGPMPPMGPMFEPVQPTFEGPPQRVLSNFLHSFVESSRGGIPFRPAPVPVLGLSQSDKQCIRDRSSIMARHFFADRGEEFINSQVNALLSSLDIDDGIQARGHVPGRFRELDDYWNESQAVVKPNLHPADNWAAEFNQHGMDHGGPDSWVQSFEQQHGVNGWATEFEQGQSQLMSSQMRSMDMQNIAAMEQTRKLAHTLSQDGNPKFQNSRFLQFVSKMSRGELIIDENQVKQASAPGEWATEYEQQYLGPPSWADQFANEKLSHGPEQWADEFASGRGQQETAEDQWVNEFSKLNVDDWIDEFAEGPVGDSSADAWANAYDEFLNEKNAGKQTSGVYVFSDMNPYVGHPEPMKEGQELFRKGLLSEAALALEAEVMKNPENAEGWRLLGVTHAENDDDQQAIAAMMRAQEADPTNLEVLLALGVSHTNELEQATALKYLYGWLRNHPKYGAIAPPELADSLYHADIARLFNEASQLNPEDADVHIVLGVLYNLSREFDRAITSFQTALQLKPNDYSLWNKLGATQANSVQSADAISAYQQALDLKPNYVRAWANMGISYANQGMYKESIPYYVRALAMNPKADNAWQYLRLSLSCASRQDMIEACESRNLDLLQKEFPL


What was measured:
[1] = target: catalase 2 (CAT2), recombinant Arabidopsis thaliana, full-length (Arabidopsis thaliana) (UniProt P25819)
[2] = target: T1, PEX5-CAT2 complex (Atto-488-labelled …); assay: MST; Atto-488-labelled CAT2 saturated with PEX5 (10-fold above the affinity value) before titration of LSD1; 25°C, 20 mM HEPES pH 7.5, 20 mM NaCl, 0.05% Tween 20; details: both partners purified
[3] = target: T2, peroxisome import receptor PEX5, …; assay: MST; 100 nM Atto-488-labelled CAT2, unlabelled partner serially diluted; 25°C, 20 mM HEPES pH 7.5, 20 mM NaCl, 0.05% Tween 20; Monolith NT.115; details: both partners purified

catalase activity (change of 240 nm absorbance in 30 mM H2O2) of 10 μM CAT2 mixed with 10 μM LSD1 to form LSD1-CAT2 condensates, against CAT2 alone [1] [fold] | Kd [2] [µM] | Kd [3] [µM] | Binder
2.5 | 0.136 ± 0.0398 | – | LESION SIMULATING DISEASE1 (LSD1), recombinant Arabidopsis thaliana, full-length (natural protein, UniProt P94077-2 1-184, looked up, unlabelled when titrated in MST; labelled with Atto-550 in the condensate imaging, LSD1 (LESION SIMULATING DISEASE1), Arabidopsis thaliana, full-length, cloned into pET28b with NdeI and NotI; pET28b with NdeI cloning would usually add an N-terminal His tag (surmise; source: dialysed)) MQDQLVCHGCRNLLMYPRGASNVRCALCNTINMVPPPPPPHDMAHIICGGCRTMLMYTRGASSVRCSCCQTTNLVPAHSNQVAHAPSSQVAQINCGHCRTTLMYPYGASSVKCAVCQFVTNVNMSNGRVPLPTNRPNGTACPPSTSTSTPPSQTQTVVVENPMSVDESGKLVSNVVVGVTTDKK
– | – | 2.35 ± 0.279 | catalase 2 (CAT2), recombinant Arabidopsis thaliana, full-length (enzyme, UniProt P25819 1-492, looked up, labelled with Atto-488 (protein to dye 1:1) in MST and in the condensate imaging, catalase 2 (CAT2), Arabidopsis thaliana, full-length recombinant protein; cloned into pET28b with NdeI and XhoI; pET28b with NdeI cloning would usually add an N-terminal His tag (surmise)) MDPYKYRPASSYNSPFFTTNSGAPVWNNNSSMTVGPRGPILLEDYHLVEKLANFDRERIPERVVHARGASAKGFFEVTHDISNLTCADFLRAPGVQTPVIVRFSTVIHERGSPETLRDPRGFAVKFYTREGNFDLVGNNFPVFFIRDGMKFPDMVHALKPNPKSHIQENWRILDFFSHHPESLNMFTFLFDDIGIPQDYRHMDGSGVNTYMLINKAGKAHYVKFHWKPTCGVKSLLEEDAIRVGGTNHSHATQDLYDSIAAGNYPEWKLFIQIIDPADEDKFDFDPLDVTKTWPEDILPLQPVGRMVLNKNIDNFFAENEQLAFCPAIIVPGIHYSDDKLLQTRVFSYADTQRHRLGPNYLQLPVNAPKCAHHNNHHEGFMNFMHRDEEVNYFPSRYDQVRHAEKYPTPPAVCSGKRERCIIEKENNFKEPGERYRTFTPERQERFIQRWIDALSDPRITHEIRSIWISYWSQADKSLGQKLASRLNVRPSI

Reference: paper PMC12371180, “Redox regulation of LSD1/CATALASE 2 phase separation condensates controls location and functions” (The New Phytologist, 2025)
